# According to publication PMC12680531, “A novel TM4SF4-targeting therapeutic antibody candidate with antitumor activity by blocking IGF1R and CD44 signaling and downregulating PD-L1 and B7-H4” (Theranostics, 2026):
# No end group written: not given here.
# B1: murine anti-hTM4SF4 monoclonal antibody 2B7 (antibody, V domains shown)
# VH: EVKLEESGPGILQPSQTLSLTCSFSGFSLSTYGIGVSWIRQPSGKGLEWLAHIWWNDNKYYNTALKSRLTISKDTSNNQVFLKIASVDTADTATYYCARKEGSSAPFAYWGQGTLVTVSA
# VL: not shown
# notes: VH of murine 2B7; mouse IgG1 heavy chain constant region; Vκ of murine 2B7; mouse kappa light chain constant region; murine IgG1, kappa; also called murine 2B7; anti-hTM4SF4 mAb 2B7; source: murine hybridoma, purified from culture supernatant (protein G chromatography)
# Biological target: T1, biotinylated hTM4SF4 (T126-E140) peptide containing a GSAGGS spacer (Homo sapiens, also: biotin, position not given here, GSAGGS spacer, position not given here)
# T1 construct: human TM4SF4, residues T126-E140 of the large extracellular loop; also called biotinylated hTM4SF4 peptide; hTM4SF4 peptide
# T1 chain: TWGYPFHDGDYLNDE
# Experiment: SPR; Biacore T200; biotinylated hTM4SF4 peptide with GSAGGS spacer immobilised on a streptavidin chip; antibodies in two-fold dilutions (128-1 nM or 512-16 nM) in HBS-EP+; 25°C; 30 μL/min; 1:1 binding model
# Details: both partners purified
binder,measurement,value
B1,Kd,2.66 nM
